These results are taken from the Immune Epitope Database (IEDB).

Targets include HLA-B*57:01; HLA-B*44:03; HLA-B*07:02; HLA-B*53:01; HLA-B*35:01.
What all share (assay): IEDB peptide-MHC binding, purified MHC/competitive/radioactivity; ≥ and ≤ were set here for values at or beyond the usual limits of such assays
Conditions in all cases: source organism: Bordetella pertussis

Take VARLVKLQG: in the assay with HLA-B*57:01, the IC50 was at least 70.4 µM. KEVDGIIQE: the IC50 in the assay with HLA-B*44:03 amounted to 39.1 µM. Regarding LPPRPVVAE, in the assay with HLA-B*07:02, the IC50 was at least 77.5 µM. As for HADWNNQSI, the half-maximal inhibitory concentration (IC50) in the assay with HLA-B*53:01 was 12.4 µM. For PLPPRPVVA, in the assay with HLA-B*44:03, the IC50 was 55.9 µM.

As for GEIALGDAT, the IC50 with HLA-B*44:03 stood at 15.6 µM. With YALKSRIAL, in the assay with HLA-B*35:01, the 50% inhibitory concentration (IC50) was determined as 19.3 µM. As for VIGACTSPY, the IC50 with HLA-B*35:01 worked out at 62.6 µM. For the sequence PFIIKLKDC, in the assay with HLA-B*35:01, the concentration for half-maximal inhibition (IC50) is 11.6 µM. Consider YEVTPTRML, for which, in the assay with HLA-B*44:03, the IC50 is 19 µM. Consider TPLPVSLTA, for which the 50% inhibitory concentration (IC50) in the assay with HLA-B*35:01 was found to be 0.209 µM; with HLA-B*53:01, 11.8 µM. KAKSLTTEI: in the assay with HLA-B*57:01, the half-inhibitory concentration (IC50) is at least 70.4 µM. As for YSTGDLRAY, the IC50 with HLA-B*35:01 amounted to 31.4 µM.

As usually defined, the IC50 is the concentration that inhibits the measured activity by half.
